Results published in PMC6987225.

Biological target: T1, EngHD (Engrailed homeodomain, DNA-binding domain) (Drosophila melanogaster) (UniProt P02836)
T1 sequence: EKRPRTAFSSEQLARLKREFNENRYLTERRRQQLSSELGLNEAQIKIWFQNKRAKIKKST
Assay: FCS
Conditions: ~1 nM Alexa 488-EngHD with unlabeled dsDNA titrated, ionic strength 50 mM (NaCl) unless stated, buffer, pH and temperature not in the material

With “CCATGGTTCTTAACCAAATTGAATTCTCGCCACCGATCGTGTTCGCCCGAAATAAATCTGGCCGAAAAGCCATCAATCTACAATCTAACTGTGCCTCGGTTTATACCTCCAACTGCCGTTCACCGAAAAGGCCGACAGTTTTCCGACAAAGACAAATTCTTAACCAAATTGAATTCTCGCCACCGATCGTGTTCGCCCGAAATAAATCTGGCCGAAAAGCCATCAATCTACAATCTAACTGTGCCTCGGTTTATACCTCCAACTGCCGTTCACCGAAAAGGCCGACAGTTTTCCGACTAATTGTTCTTAACCAAATTGAATTCTCGCCACCGATCGTGTTCGCCCGAAATAAATCTGGCCGAAAAGCCATCAATCTACAATCTAACTGTGCCTCGGTTTATACCTCCAACTGCCGTTCACCGAAAAGGCCGACAGTTTTCCGACTTCTTAACCAAATTGAATTCTCGCCACCGATCGTGTTCGCCCGAAATAAATCTGGCCGAAAAGCCATCAATCTACAATCTAACTGTGCCTCGGTTTATACCTCCAACTGCCGTTCACCGAAAAGGCCGACAGTTTTCCGACAAAGACAAAAAGCTT (double strand) [600 bp TAATTG]” the Kd was 2.2 nM.
With full beta3-tubulin gene 7219 bp the Kd (upper estimate, text: sub-nM) was < 0.7 nM.
